Experimental findings from US20120065379A1 (Chugai, published 2012) are described below.

Experiment [1] has as its target T1, Soluble human FcRn (complex of FcRn and β2-microglobulin) (human, UniProt P55899 24-290; P61769 21-119).
T1 construct: Co-expressed in HEK293H cells and purified from the culture supernatant; also called hFcRn
Kind of experiment: SPR (Biacore 3000), pH 6.0; antibody captured on Protein L or rabbit anti-human IgG Kappa chain antibody, human FcRn as analyte; steady state affinity fit. The procedure: (§1) Human FcRn was prepared according to the method described in Reference Example 2. The binding to human FcRn was assessed using Biacore 3000. An antibody was bound to Protein L or rabbit anti-human IgG Kappa chain antibody immobilized onto a sensor chip, human FcRn was added as an analyte for interaction with the antibody, and the affinity (KD) was calculated from the amount of bound human FcRn. Specifically, Protein L or rabbit anti-human IgG Kappa chain antibody was immobilized onto sensor chip CMS (BIACORE) by the amine coupling method using 50 mM Sodium-phosphate buffer (pH 6.0) containing 150 mM NaCl as the running buffer. Then, IL6R H0-IgG1/L0-k0 and IL6R H0-M82/L0-k0 was each diluted with a running buffer containing 0.02% Tween20, and injected to be bound to the chip. Human FcRn was then injected and the binding of the human FcRn to antibody was assessed.
(§2) The affinity was computed using BIAevaluation Software. The obtained sensorgram was used to calculate the amount of hFcRn bound to the antibody immediately before the end of human FcRn injection. The affinity of the antibody for human FcRn was calculated by fitting with the steady state affinity method.
In general terms: In SPR one partner is held on a chip, and binding of the other changes the refractive index at the surface.

Experiment [2] concerns the target T1, Soluble human FcRn (complex of FcRn and …). Kind of experiment: SPR (Biacore 3000), pH 6.0; antibody captured, human FcRn as analyte; steady state affinity. How it is done: as §1, §2

T1 sequence (P55899 24-290 limits assumed, chain 1 of 2): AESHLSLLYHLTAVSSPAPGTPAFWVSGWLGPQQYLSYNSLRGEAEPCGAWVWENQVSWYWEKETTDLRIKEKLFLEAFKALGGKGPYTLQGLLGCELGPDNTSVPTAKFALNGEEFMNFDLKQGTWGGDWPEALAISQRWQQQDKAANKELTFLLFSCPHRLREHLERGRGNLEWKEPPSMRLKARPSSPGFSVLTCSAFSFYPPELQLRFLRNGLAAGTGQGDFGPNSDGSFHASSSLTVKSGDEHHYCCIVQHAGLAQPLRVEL
T1 sequence (P61769 21-119 limits assumed, chain 2 of 2): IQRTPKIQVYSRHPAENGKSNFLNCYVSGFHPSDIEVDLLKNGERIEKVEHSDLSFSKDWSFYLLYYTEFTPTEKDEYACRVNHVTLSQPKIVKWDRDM

B1: IL6R H0-M82/L0-k0 (antibody, IgG2)
heavy: QVQLQESGPGLVRPSQTLSLTCTVSGYSITSDHAWSWVRQPPGRGLEWIGYISYSGITTYNPSLKSRVTMLRDTSKNQFSLRLSSVTAADTAVYYCARSLARTTAMDYWGQGSLVTVSSASTKGPSVFPLAPCSRSTSESTAALGCLVKDYFPEPVTVSWNSGALTSGVHTFPAVLQSSGLYSLSSVVTVPSSNFGTQTYTCNVDHKPSNTKVDKTVERKSSVECPPCPAPPVAGPSVFLFPPKPKDTLMISRTPEVTCVVVDVSQEDPEVQFNWYVDGVEVHNAKTKPREEQFNSTFRVVSVLTVVHQDWLNGKEYKCKVSNKGLPAPIEKTISKTKGQPREPQVYTLPPSQEEMTKNQVSLTCLVKGFYPSDIAVEWESNGQPENNYKTTPPMLDSDGSFFLYSKLTVDKSRWQEGNVFSCSVMHEALHNHYTQKSLSLSP
light: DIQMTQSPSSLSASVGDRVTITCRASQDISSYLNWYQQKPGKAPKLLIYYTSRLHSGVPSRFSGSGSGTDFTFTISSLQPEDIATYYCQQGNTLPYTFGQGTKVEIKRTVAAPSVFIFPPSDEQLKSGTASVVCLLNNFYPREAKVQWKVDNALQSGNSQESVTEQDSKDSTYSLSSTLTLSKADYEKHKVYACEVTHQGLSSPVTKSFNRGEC
notes: Same variable regions as m1; The M82 constant region is an IgG2 variant with C219S, C220S, H268Q, R355Q and Q419E (EU numbering) and with Gly446 and Lys447 deleted; also called M82-k0
In experiment [1], B1 registered a Kd of 1210 nM. In addition, the “fold increase of binding compared to IL6R H0-IgG1/L0-k0” value in experiment [2] is about 1.34 times.

In general, Kd refers to a measure of binding affinity in units of concentration. Read a high Kd as a looser complex.
